Test results published in article PMC3164098 (2011).
Ends that are not written are not given here.

Molecular target: T1, 12/1 peptide
T1 chain: MPRFMDYWEGLN-NH2
Test: ITC

B1: MDM2 18-125 (protein)
chain: QIPASEQETLVRPKPLLLKLLKSVGAQKDTYTMKEVLFYLGQYIMTKRLYDEKQQHIVYCSNDLLGDLFGVPSFSVKEHRKIYTMIYRNLVVVNQQESSDSGTSVSEN
- Kd: 240 nM
